Target: T1, µ1 MHD carrying a C-terminal Avitag, WT (UniProt Q9BXS5 158-423)
T1 sequence (looked up): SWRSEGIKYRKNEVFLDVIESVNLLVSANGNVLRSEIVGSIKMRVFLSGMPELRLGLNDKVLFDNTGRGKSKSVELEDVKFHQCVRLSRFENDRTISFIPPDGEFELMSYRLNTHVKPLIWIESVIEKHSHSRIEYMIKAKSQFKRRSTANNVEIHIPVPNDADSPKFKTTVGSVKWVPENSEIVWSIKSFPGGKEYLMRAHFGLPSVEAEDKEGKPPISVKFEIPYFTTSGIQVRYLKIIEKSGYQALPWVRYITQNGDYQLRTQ
Test: SPR

B1: TGN38 peptide carrying a canonical YXXΦ signal (peptide)
peptide: CKVTRRPKASDYQRL
Work on B1 yielded a Kd of about 20 µM.

Reference: publication PMC5584140 (The Journal of Cell Biology, 2017)
